Experimental data published in PMC6817910, “Aspartate/asparagine-β-hydroxylase crystal structures reveal an unexpected epidermal growth factor-like domain substrate disulfide pattern” (Nature Communications, 2019).
Bridge positions count the residues as written; N and C are the ends. Ends that are not written are not given here.

B1: NC_(26mer), truncated 26mer hFX EGF1 substrate (aa 86–111) with the non-canonical disulfide arrangement (Cys1–2, 3–4) (peptide, UniProt P00742 86-111, looked up)
peptide: DGDQCETSPCQNQGKCKDGLGEYTCT
modifications: disulfide 5-10, 16-25
notes: human coagulation factor X, first EGF-like domain, aa 86-111, lacking the Cys5–6 disulfide-forming residues; also called NC_(26mer) peptide; source: synthetic peptide (GL Biochem (Shanghai) Ltd, orthogonal cysteine protection, single disulfide isomer)
B2: hFX EGF1_(39mer), N-terminal EGF-like domain of human coagulation factor X (aa 86–124) (peptide, UniProt P00742 86-124, looked up)
peptide: DGDQCETSPCQNQGKCKDGLGEYTCTCLEGFEGKNCELF
modifications: disulfide 27-36; not fully specified (C-terminus); also: mixture of canonical (Cys1–3, 2–4) and non-canonical (Cys1–2, 3–4) isomers, crystal: Cys101–Cys110
notes: human coagulation factor X, first EGF-like domain, aa 86-124; The peptide batch is a mixture of disulfide isomers; also called NC_(39mer) peptide (the non-canonical disulfide isomer seen in the crystal); 39-residue fragment of hFX EGF1
B3: NC-4Ser_(39mer), hFX EGF1_(39mer) with cysteines 1, 2, 5 and 6 (aa 90, 95, 112 and 121) replaced by serines (peptide, UniProt P00742 86-124, looked up)
peptide: DGDQSETSPSQNQGKCKDGLGEYTCTSLEGFEGKNSELF
modifications: disulfide 16-25
notes: human coagulation factor X, first EGF-like domain, aa 86-124, with Cys90, 95, 112 and 121 substituted for Ser; also called NC-Ser_(39mer); NC-4Ser_(39mer) peptide; source: synthetic peptide (GL Biochem (Shanghai) Ltd, single disulfide isomer)

These binders were tested against T1, N-terminally His6-tagged AspH_(315–758) (human aspartate/asparagine-β-hydroxylase, TPR and oxygenase domains) (human, UniProt Q12797 315-758) (assay: crystal structure; N-terminally His6-tagged AspH_(315–758) (18 mg/mL in 50 mM HEPES, pH 7.5) mixed with 1 mM MnCl2, 2 mM N-oxalylglycine and the AspH-substrate; co-crystallised by vapour diffusion at 4 °C in sitting drops). Settings: both partners purified.
T1 construct: human aspartate/asparagine-β-hydroxylase (AspH), residues 315-758: TPR domain (aa 330-555), hinge-loop region (aa 556-577) and 2OG oxygenase domain; pET-28a(+) construct; crystallised with Mn(II) in place of Fe(II) and N-oxalylglycine (NOG); also called AspH-TPR-Ox; His6-AspH_(315–758); not shown: His6, N-terminal, kept
T1 sequence (looked up): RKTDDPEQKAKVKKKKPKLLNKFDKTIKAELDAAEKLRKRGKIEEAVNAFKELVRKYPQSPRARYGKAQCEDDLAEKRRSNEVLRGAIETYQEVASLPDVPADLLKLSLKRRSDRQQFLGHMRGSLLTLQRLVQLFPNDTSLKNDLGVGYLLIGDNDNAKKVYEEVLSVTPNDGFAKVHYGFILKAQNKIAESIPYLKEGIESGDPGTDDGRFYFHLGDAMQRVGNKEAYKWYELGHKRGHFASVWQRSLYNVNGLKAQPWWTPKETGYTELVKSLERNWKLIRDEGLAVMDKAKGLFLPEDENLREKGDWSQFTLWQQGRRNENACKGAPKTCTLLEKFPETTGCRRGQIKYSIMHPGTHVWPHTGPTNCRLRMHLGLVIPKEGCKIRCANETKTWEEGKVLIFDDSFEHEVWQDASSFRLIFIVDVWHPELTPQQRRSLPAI

Binding result, binds:
B1
B2
B3
